T1: Neurofibromin EF fragment (1821-2818, purified) (human, UniProt P21359-2 1821-2818)
T1 construct: Neurofibromin, human NF1 isoform 2 (NM_000267.3), residues 1821-2818 (domains E and F); expected molar mass 111 kDa; also called EF domain; C-terminal EF domain; source: baculovirus-based insect cell system, purified; not shown: His6-MBP, N-terminal, cleaved
T1 sequence (looked up): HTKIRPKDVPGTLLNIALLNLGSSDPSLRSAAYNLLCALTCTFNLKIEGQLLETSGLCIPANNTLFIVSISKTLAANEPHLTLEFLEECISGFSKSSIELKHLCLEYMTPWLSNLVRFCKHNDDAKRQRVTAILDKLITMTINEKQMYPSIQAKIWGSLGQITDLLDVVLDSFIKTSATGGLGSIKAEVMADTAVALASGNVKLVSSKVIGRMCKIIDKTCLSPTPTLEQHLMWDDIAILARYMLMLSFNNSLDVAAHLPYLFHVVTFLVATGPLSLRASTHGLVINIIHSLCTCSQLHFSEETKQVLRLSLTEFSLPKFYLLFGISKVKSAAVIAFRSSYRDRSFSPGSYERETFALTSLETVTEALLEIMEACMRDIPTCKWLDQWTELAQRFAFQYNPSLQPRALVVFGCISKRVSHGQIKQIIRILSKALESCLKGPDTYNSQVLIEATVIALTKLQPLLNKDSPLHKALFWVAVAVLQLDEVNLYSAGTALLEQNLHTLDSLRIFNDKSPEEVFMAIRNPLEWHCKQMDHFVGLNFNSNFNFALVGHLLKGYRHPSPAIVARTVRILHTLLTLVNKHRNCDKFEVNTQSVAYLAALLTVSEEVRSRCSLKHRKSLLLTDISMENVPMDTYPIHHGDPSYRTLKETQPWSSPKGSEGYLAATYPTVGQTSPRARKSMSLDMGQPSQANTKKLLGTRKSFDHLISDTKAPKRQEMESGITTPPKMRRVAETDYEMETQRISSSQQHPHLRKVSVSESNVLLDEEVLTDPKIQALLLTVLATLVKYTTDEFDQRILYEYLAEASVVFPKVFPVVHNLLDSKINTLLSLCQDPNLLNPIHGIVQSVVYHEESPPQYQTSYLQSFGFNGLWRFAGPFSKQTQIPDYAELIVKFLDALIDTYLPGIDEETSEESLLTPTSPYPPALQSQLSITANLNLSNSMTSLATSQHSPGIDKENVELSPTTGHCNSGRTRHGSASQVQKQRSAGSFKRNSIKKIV


Assays:
[1] = molecular target: T2, Neurofibromin DEF fragment (1541-2818, purified) (human, UniProt P21359-2 1541-2818); test: SEC; equimolar mixtures of purified NF1 fragments run on SEC; fractions analysed by SDS-PAGE for co-elution; conditions: both partners purified
T2 construct: expected molar mass 144 kDa; also called DEF domain; carboxy-terminal DEF; source: baculovirus-based insect cell system, purified; not shown: His6-MBP, N-terminal, cleaved

[2] = molecular target: T1, Neurofibromin EF fragment (1821-2818, …); test: as above; conditions: both partners purified

| binding result [1] | binding result [2] | Binder |
| --- | --- | --- |
| binds | binds | Neurofibromin C* domain (1085-1530) (domain or fragment, human, UniProt P21359-2 1085-1530, looked up, source: purified; not shown: His6-MBP, N-terminal, cleaved) LQPEEGDGVELMEAKSQLFLKYFTLFMNLLNDCSEVEDESAQTGGRKRGMSRRLASLRHCTVLAMSNLLNANVDSGLMHSIGLGYHKDLQTRATFMEVLTKILQQGTEFDTLAETVLADRFERLVELVTMMGDQGELPIAMALANVVPCSQWDELARVLVTLFDSRHLLYQLLWNMFSKEVELADSMQTLFRGNSLASKIMTFCFKVYGATYLQKLLDPLLRIVITSSDWQHVSFEVDPTRLEPSESLEENQRNLLQMTEKFFHAIISSSSEFPPQLRSVCHCLYQVVSQRFPQNSIGAVGSAMFLRFINPAIVSPYEAGILDKKPPPRIERGLKLMSKILQSIANHVLFTKEEHMRPFNDFVKSNFDAARRFFLDIASDCPTSDAVNHSLSFISDGNVLALHRLLWNNQEKIGQYLSSNRDHKAVGRRPFDKMATLLAYLGPPEH |
|  | binds | Neurofibromin C*D domain (1085-1816) (domain or fragment, human, UniProt P21359-2 1085-1816, looked up, C* constructs have an altered start site within the C domain; source: purified; not shown: His6-MBP, N-terminal, cleaved) LQPEEGDGVELMEAKSQLFLKYFTLFMNLLNDCSEVEDESAQTGGRKRGMSRRLASLRHCTVLAMSNLLNANVDSGLMHSIGLGYHKDLQTRATFMEVLTKILQQGTEFDTLAETVLADRFERLVELVTMMGDQGELPIAMALANVVPCSQWDELARVLVTLFDSRHLLYQLLWNMFSKEVELADSMQTLFRGNSLASKIMTFCFKVYGATYLQKLLDPLLRIVITSSDWQHVSFEVDPTRLEPSESLEENQRNLLQMTEKFFHAIISSSSEFPPQLRSVCHCLYQVVSQRFPQNSIGAVGSAMFLRFINPAIVSPYEAGILDKKPPPRIERGLKLMSKILQSIANHVLFTKEEHMRPFNDFVKSNFDAARRFFLDIASDCPTSDAVNHSLSFISDGNVLALHRLLWNNQEKIGQYLSSNRDHKAVGRRPFDKMATLLAYLGPPEHKPVADTHWSSLNLTSSKFEEFMTRHQVHEKEEFKALKTLSIFYQAGTSKAGNPIFYYVARRFKTGQINGDLLIYHVLLTLKPYYAKPYEIVVDLTHTGPSNRFKTDFLSKWFVVFPGFAYDNVSAVYIYNCNSWVREYTKYHERLLTGLKGSKRLVFIDCPGKLAEHIEHEQQKLPAATLALEEDLKVFHNALKLAHKDTKVSIKVGSTAVQVTSAERTKVLGQSVFLNDIYYASEIEEICLVDENQFTLTIANQGTPLTFMHQECEAIVQSIIHIRTRWELSQPD |

Source: doi:10.1101/757856, “Biochemical and structural analysis reveals the Neurofibromin (NF1) protein forms a high-affinity dimer” (bioRxiv, 2019)
